Test results: publication PMC10883916, “Cbp1 and Cren7 form chromatin-like structures that ensure efficient transcription of long CRISPR arrays”

Experiments:
Cbp1;Cren7 [1] = biological target: T1, Cbp1;Cren7 (Saccharolobus (Sulfolobus) solfataricus …, UniProt Q97ZW9;Q97ZE3 1-150;1-60, |); test: EMSA; 12.5 nM Cbp1, 12.5-25 nM Cren7; two Cren7 recruited; EMSA: 800 pM DNA, 10 mM MOPS pH 6.5, 100 mM KCl, 10 mM MgCl2, 2 µg BSA, 10% glycerol, 5 mM DTT, 75 °C 5 min; long templates: 10 mM MOPS pH 6.5, 10 mM MgCl2, 105 mM KCl, 10% glycerol, 10 mM DTT, 5 µg/ml heparin, 2 mM spermidine, 65 °C; details: protein: recombinant;recombinant; tags: ;; copies: 1;2; label: 5'-32P; blunt
T1 sequence 1: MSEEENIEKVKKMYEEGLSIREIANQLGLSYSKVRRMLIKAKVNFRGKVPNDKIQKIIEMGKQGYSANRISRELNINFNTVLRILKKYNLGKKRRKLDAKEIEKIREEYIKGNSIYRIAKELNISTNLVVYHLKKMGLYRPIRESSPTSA
T1 sequence 2: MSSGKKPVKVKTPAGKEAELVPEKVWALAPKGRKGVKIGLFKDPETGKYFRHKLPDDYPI

Cbp1 [2] = biological target: T2, Cbp1 (Saccharolobus (Sulfolobus) solfataricus …, UniProt Q97ZW9 1-150); test: EMSA; 12.5 nM Cbp1; stronger than CRISPR A; EMSA: 800 pM DNA, 10 mM MOPS pH 6.5, 100 mM KCl, 10 mM MgCl2, 2 µg BSA, 10% glycerol, 5 mM DTT, 75 °C 5 min; long templates: 10 mM MOPS pH 6.5, 10 mM MgCl2, 105 mM KCl, 10% glycerol, 10 mM DTT, 5 µg/ml heparin, 2 mM spermidine, 65 °C; details: protein: recombinant; label: 5'-32P; blunt
T2 sequence: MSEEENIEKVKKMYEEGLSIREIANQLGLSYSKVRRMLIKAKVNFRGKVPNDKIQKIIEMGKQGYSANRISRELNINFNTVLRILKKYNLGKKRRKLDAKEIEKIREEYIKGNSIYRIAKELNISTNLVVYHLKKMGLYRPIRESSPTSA

Cbp1;Cren7 [3] = biological target: T1, Cbp1;Cren7; test: EMSA; 12.5 nM Cbp1, 3.125-25 nM Cren7; weaker Cren7 affinity than CRISPR A; EMSA: 800 pM DNA, 10 mM MOPS pH 6.5, 100 mM KCl, 10 mM MgCl2, 2 µg BSA, 10% glycerol, 5 mM DTT, 75 °C 5 min; long templates: 10 mM MOPS pH 6.5, 10 mM MgCl2, 105 mM KCl, 10% glycerol, 10 mM DTT, 5 µg/ml heparin, 2 mM spermidine, 65 °C; details: protein: recombinant;recombinant; tags: ;; copies: 1;2; label: 5'-32P; blunt
Cbp1;Cren7 [4] = biological target: T1, Cbp1;Cren7; test: EMSA; 12.5 nM Cbp1, 3.125-25 nM Cren7; EMSA: 800 pM DNA, 10 mM MOPS pH 6.5, 100 mM KCl, 10 mM MgCl2, 2 µg BSA, 10% glycerol, 5 mM DTT, 75 °C 5 min; long templates: 10 mM MOPS pH 6.5, 10 mM MgCl2, 105 mM KCl, 10% glycerol, 10 mM DTT, 5 µg/ml heparin, 2 mM spermidine, 65 °C; details: protein: recombinant;recombinant; tags: ;; copies: 1;2; label: 5'-32P; blunt
Cbp1;Cren7 [5] = biological target: T1, Cbp1;Cren7; test: EMSA; 12.5 nM Cbp1, 3.125-25 nM Cren7; second Cren7 at higher concentration; EMSA: 800 pM DNA, 10 mM MOPS pH 6.5, 100 mM KCl, 10 mM MgCl2, 2 µg BSA, 10% glycerol, 5 mM DTT, 75 °C 5 min; long templates: 10 mM MOPS pH 6.5, 10 mM MgCl2, 105 mM KCl, 10% glycerol, 10 mM DTT, 5 µg/ml heparin, 2 mM spermidine, 65 °C; details: protein: recombinant;recombinant; tags: ;; copies: 1;2; label: 5'-32P; blunt
Cbp1 [6] = biological target: T2, Cbp1; test: EMSA; WT reference; EMSA: 800 pM DNA, 10 mM MOPS pH 6.5, 100 mM KCl, 10 mM MgCl2, 2 µg BSA, 10% glycerol, 5 mM DTT, 75 °C 5 min; long templates: 10 mM MOPS pH 6.5, 10 mM MgCl2, 105 mM KCl, 10% glycerol, 10 mM DTT, 5 µg/ml heparin, 2 mM spermidine, 65 °C; details: protein: recombinant; label: 5'-32P; blunt
Cbp1 ΔHTH1 = biological target: T3, Cbp1 ΔHTH1 (S. solfataricus P2, UniProt Q97ZW9 1-1+51-150, internal_change); test: EMSA; 160 nM; unaffected by mutation vs ΔHTH1 on WT repeat; EMSA: 800 pM DNA, 10 mM MOPS pH 6.5, 100 mM KCl, 10 mM MgCl2, 2 µg BSA, 10% glycerol, 5 mM DTT, 75 °C 5 min; long templates: 10 mM MOPS pH 6.5, 10 mM MgCl2, 105 mM KCl, 10% glycerol, 10 mM DTT, 5 µg/ml heparin, 2 mM spermidine, 65 °C; details: protein: recombinant; label: 5'-32P; blunt
T3 sequence: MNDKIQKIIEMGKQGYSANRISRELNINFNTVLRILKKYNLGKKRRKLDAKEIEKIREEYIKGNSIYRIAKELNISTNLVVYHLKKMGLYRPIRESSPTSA

Cbp1 ΔHTH3 = biological target: T4, Cbp1 ΔHTH3 (S. solfataricus P2, UniProt Q97ZW9 1-87+136-150, internal_change); test: EMSA; 80 nM; no apparent effect of mutation; EMSA: 800 pM DNA, 10 mM MOPS pH 6.5, 100 mM KCl, 10 mM MgCl2, 2 µg BSA, 10% glycerol, 5 mM DTT, 75 °C 5 min; long templates: 10 mM MOPS pH 6.5, 10 mM MgCl2, 105 mM KCl, 10% glycerol, 10 mM DTT, 5 µg/ml heparin, 2 mM spermidine, 65 °C; details: protein: recombinant; label: 5'-32P; blunt
T4 sequence: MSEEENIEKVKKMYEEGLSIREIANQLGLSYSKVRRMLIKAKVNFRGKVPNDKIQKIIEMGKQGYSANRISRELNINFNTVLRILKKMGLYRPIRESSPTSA

Cbp1 [7] = biological target: T2, Cbp1; test: EMSA; not reduced vs WT repeat; EMSA: 800 pM DNA, 10 mM MOPS pH 6.5, 100 mM KCl, 10 mM MgCl2, 2 µg BSA, 10% glycerol, 5 mM DTT, 75 °C 5 min; long templates: 10 mM MOPS pH 6.5, 10 mM MgCl2, 105 mM KCl, 10% glycerol, 10 mM DTT, 5 µg/ml heparin, 2 mM spermidine, 65 °C; details: protein: recombinant; label: 5'-32P; blunt

B1: CRISPR A repeat 1, 20 bp downstream (dsDNA)
DNA 1: GGAAGTATAAAAACACAACAGATTAATCCCAAAAGGAATTGAAAGGAACTAGCTTATAGTTTAGA
DNA 2: TCTAAACTATAAGCTAGTTCCTTTCAATTCCTTTTGGGATTAATCTGTTGTGTTTTTATACTTCC
- binding result (Cbp1;Cren7 [1]): binds

B2: CRISPR F repeat, 20 bp flanks (dsDNA)
DNA 1: AAAATTATTGACAAAAATAGGCTAATCTACTATAGAATTGAAAGCTACACCGATTCCGATACCC
DNA 2: GGGTATCGGAATCGGTGTAGCTTTCAATTCTATAGTAGATTAGCCTATTTTTGTCAATAATTTT
- binding result (Cbp1 [2]): binds
- binding result (Cbp1;Cren7 [3]): binds

B3: CRISPR A repeat 1, 2 bp downstream (dsDNA)
DNA 1: GGAAGTATAAAAACACAACAGATTAATCCCAAAAGGAATTGAAAGGA
DNA 2: TCCTTTCAATTCCTTTTGGGATTAATCTGTTGTGTTTTTATACTTCC
- binding result (Cbp1;Cren7 [1]): binds

B4: CRISPR D repeat, 20 bp flanks (dsDNA)
DNA 1: AACTAACAAATATACGCCTTGATAATCTCTTATAGAATTGAAAGTCAATTTGTGAAACTTGTCC
DNA 2: GGACAAGTTTCACAAATTGACTTTCAATTCTATAAGAGATTATCAAGGCGTATATTTGTTAGTT
- binding result (Cbp1;Cren7 [3]): binds

B5: ISC1229 non-canonical Cbp1 binding site (dsDNA)
DNA 1: AACTTCAAGCATAGTGTCAACTAAGATTGCCACGTGAATTGAAAGGATTCACGTGGCGATTTTGG
DNA 2: CCAAAATCGCCACGTGAATCCTTTCAATTCACGTGGCAATCTTAGTTGACACTATGCTTGAAGTT
- binding result (Cbp1;Cren7 [4]): binds

B6: CRISPR A repeat, 20 bp flanks (Fig. 1e) (dsDNA)
DNA 1: CATCTTCTCTCATCACCTTCGATTAATCCCAAAAGGAATTGAAAGAATGTATAAAGGTAACCAGG
DNA 2: CCTGGTTACCTTTATACATTCTTTCAATTCCTTTTGGGATTAATCGAAGGTGATGAGAGAAGATG
- binding result (Cbp1;Cren7 [5]): binds

B7: CRISPR A repeat 1, 5 bp flanks (WT) (dsDNA)
DNA 1: CAACAGATTAATCCCAAAAGGAATTGAAAGGAACT
DNA 2: AGTTCCTTTCAATTCCTTTTGGGATTAATCTGTTG
- binding result (Cbp1 [6]): binds

B8: CRISPR A repeat 1 A6C/T7G (dsDNA)
DNA 1: CAACAGATTACGCCCAAAAGGAATTGAAAGGAACT
DNA 2: AGTTCCTTTCAATTCCTTTTGGGCGTAATCTGTTG
- binding result (Cbp1 ΔHTH1): binds

B9: CRISPR A repeat 1 T19G/T20G (dsDNA)
DNA 1: CAACAGATTAATCCCAAAAGGAAGGGAAAGGAACT
DNA 2: AGTTCCTTTCCCTTCCTTTTGGGATTAATCTGTTG
- binding result (Cbp1 ΔHTH3): binds

B10: CRISPR A repeat 1 A13C/A14C (A13C/T14G in text) (dsDNA)
DNA 1: CAACAGATTAATCCCAACCGGAATTGAAAGGAACT
DNA 2: AGTTCCTTTCAATTCCGGTTGGGATTAATCTGTTG
- binding result (Cbp1 [7]): binds

B11: CRISPR A repeat 1 A22C/A23C (dsDNA)
DNA 1: CAACAGATTAATCCCAAAAGGAATTGCCAGGAACT
DNA 2: AGTTCCTGGCAATTCCTTTTGGGATTAATCTGTTG
- binding result (Cbp1 ΔHTH3): binds
